Test system: Bacillus subtilis
Experiment: cleaved RNA product abundance (RNA/gDNA barcode ratio) relative to median wild-type variant (ratio to wild type); higher = more accumulation of the downstream cleavage product
In short: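 B. subtilis strains with chromosomally integrated reporter mRNAs (truncated aprE or tetM) holding barcoded, mutagenized RNase Y cleavage-site windows grew in LB at 37°C from OD600 0.0003 to 0.3. Cleaved product abundance is each construct's RNA:gDNA barcode ratio, scaled to the median construct with the unmutated site. It came from sequencing barcodes of gel-selected, reverse-transcribed cleaved RNA and of genomic DNA.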

[1] = experiment (reporter, strain, medium): exp 8a: truncated aprE reporter, strain BJT201 with 2% xylose (RNase J1 expressed), cleavage site: glnRA (positions -5 to +31 mutated)
[2] = experiment (reporter, strain, medium): exp 2b: truncated aprE reporter, strain BJT200, cleavage site: cggR-gapA (positions -7 to +36 mutated)
[3] = experiment (reporter, strain, medium): exp 4a: truncated aprE reporter, strain BJT201 with 2% xylose (RNase J1 expressed), cleavage site: cggR-gapA (positions -7 to +36 mutated)
[4] = experiment (reporter, strain, medium): exp 6: tetM reporter, strain 168, cleavage site: cggR-gapA (positions -7 to +36 mutated)

Row | Sequence | cleaved RNA product abundance [2] | cleaved RNA product abundance [3] | other results
1 | CGACATGTCCCGCTTCTTTCATTACTCCGTTAGCAACTGTTTTGCTATATACATTTACCTTTTAAGAGGAGGAAT | – | – | cleaved RNA product abundance [1]: 1.1
2 | CGACATGTCCCGCTTCTTTCATTAATCCGTTAGGAACTGTTTTGCTATATAGATTTACCTTTTAAGAGGAGGAAT | – | – | cleaved RNA product abundance [1]: 0.191
3 | ACAGACGAAGGAGCCGCAAAAAAGTTATTAAGGGATGAATAATCCCTCAATATAAATATCTCTCACTTATTTAAA | 1.06 | 1.04 | cleaved RNA product abundance [4]: 1.04
4 | ACAGACGAAGGAGCCGCAAAGAAGTTATTAAGGGATAAATAATCCCTCAATATAGATATCTCTCACTTATTTAAA | 0.638 | 1.02 | –
5 | ACAGACGAAGGAGCCGCAAAGAAGTGATTAACGGATGAATAATCCCTCAATATAAATATCTCTCACTTATTTAAA | 0.129 | 0.0991 | –
6 | ACAGACGAAGGAGCCGCAAAGAAGTTATTAAGCGATAAATAATCCCTCAATATAAATATCTCTCACTTATTTAAA | 0.0673 | 0.0716 | –
7 | ACAGACGAAGGAGCCGCAAAGAAGTTATTAAGGGATGAATAGTCCCTCAATATAAAAATCTCTCACTTATTTAAA | – | 1 | –
8 | ACAGACGAAGGAGCCGCAAAGAAGTTATTAAGGCAGGAATAATCCCTCAATATAAATATCTCTCACTTATTTAAA | 0.102 | 0.167 | –
9 | ACAGACGAAGGAGCCGCAAAGAAGTTATTAAGGGATGTATAATCCCTCATTATAAATATCTCTCACTTATTTAAA | – | 0.387 | –
10 | CGACATGTCCCGCTTCTTTCATTAATGCGTTAGCAATTGTTTTGCTATATACATTTACCTTTTAAGAGGAGGAAT | – | – | cleaved RNA product abundance [1]: 0.995
11 | ACAGACGAAGGAGCCGCAAAGAAGTTATTAAGGGATGAATCATCCCTCAATTTAAATATCTCTCACTTATTTAAA | 0.169 | – | –
12 | ACAGACGAAGGAGCCGCAAAGAAGTTAATAAAGGATGAATAATCCCTCAATATAAATATCTCTCACTTATTTAAA | 0.143 | 0.215 | –
13 | ACAGACGAAGGAGCCGCAAAGAAGGTCTTAAGGGATGAATAATCCCTCAATATAAATATCTCTCACTTATTTAAA | – | 0.115 | –
14 | ACAGACGAAGGAGCCGCAAAGAAGTTATTAAAGGATGGATAATCCCTCAATATAAATATCTCTCACTTATTTAAA | – | 0.141 | –
15 | ACAGACGAAGGAGCCGCAAAGAAGTTATTAGTGGATGAATAATCCCTCAATATAAATATCTCTCACTTATTTAAA | 0.295 | 0.385 | –
16 | ACAGACGAAGGAGCCGCAAAGAAGGTATTAAGGGATGAATAATCGCTCAATATAAATATCTCTCACTTATTTAAA | 0.176 | – | –
17 | ACAGACGAAGGAGCCGCAAAGAAGATATTAAGGGATGAATAATCCCTCAATAAAAATATCTCTCACTTATTTAAA | 0.142 | – | –
18 | CGACATGTCCCGCTTCTTTCATTAATCCGTTAGCAACTGTTTTACTATATACATTTAACTTTTAAGAGGAGGAAT | – | – | cleaved RNA product abundance [1]: 0.539
19 | CGACATGTCCCGCTTCTTTCATTAATCCGTTAGCAACTGTTTTGCAATATACATTTAGCTTTTAAGAGGAGGAAT | – | – | cleaved RNA product abundance [1]: 0.72
20 | ACAGACGAAGGAGCCGCAAAGAAGTTATTAAGGGATGAATTATCCCTCAATATAAAAATCTCTCACTTATTTAAA | – | 0.966 | –

Row | Sequence | cleaved RNA product abundance [2] | cleaved RNA product abundance [3] | other results
21 | CGACATGTCCCGCTTCTTTCATTATTCCGTTAGCAACTGTTTTGATATATACATTTACCTTTTAAGAGGAGGAAT | – | – | cleaved RNA product abundance [1]: 0.502
22 | ACAGACGAAGGAGCCGCAAAGAAGTTATTAAGGGATAAATTATCCCTCAATATAAATATCTCTCACTTATTTAAA | 1.07 | 1.03 | –
23 | ACAGACGAAGGAGCCGCAAAGAAGTTATTAAAGGATGAATAATCCCCCAATATAAATATCTCTCACTTATTTAAA | 0.152 | 0.156 | –
24 | ACAGACGAAGGAGCCGCAAAGAAGTTATTAAGGGTTGAATCATCCCTCAATATAAATATCTCTCACTTATTTAAA | 0.5 | – | –
25 | CGACATGTCCCGCTTCTTTCATTAATTCGTTAGCAACTGTTTTGCTATATACACTTACCTTTTAAGAGGAGGAAT | – | – | cleaved RNA product abundance [1]: 0.629
26 | CGACATGTCCCGCTTCTTTCATTAATCCGTTAAAAACTGTTTTGCTATATACATTTACCTTTTAAGAGGAGGAAT | – | – | cleaved RNA product abundance [1]: 0.292
27 | ACAGACGAAGGAGCCGCAAAGAAGTTATTAAGGGATGGATAATCCGTCAATATAAATATCTCTCACTTATTTAAA | – | 0.149 | –
28 | ACAGACGAAGGAGCCGCAAAGAAGTTATTAAAGGATGAATAATCCCTCAATATAAATACCTCTCACTTATTTAAA | – | 0.13 | –
29 | ACAGACGAAGGAGCCGCAAAGAAGTGATTAAGGGATGAATAATCCCTCAATATAAATATCTCTCACTTATTTAAA | 0.318 | 0.391 | cleaved RNA product abundance [4]: 0.274
30 | ACAGACGAAGGAGCCGCTAAGAAGTTATTAAGTGATGAATAATCCCTCAATATAAATATCTCTCACTTATTTAAA | – | 0.167 | –
31 | ACAGACGAAGGAGCCGCCAAGAAGTTATTAACGGATGAATAATCCCTCAATATAAATATCTCTCACTTATTTAAA | 0.0909 | – | –
32 | ACAGACGAAGGAGCCGCAAAGACGTTATTAAGGGATGAATAATCACTCAATATAAATATCTCTCACTTATTTAAA | 0.101 | 0.188 | –
33 | ACAGACGAAGGAGCCGCAATAAAGTTATTAAGGGATGAATAATCCCTCAATATAAATATCTCTCACTTATTTAAA | 1.03 | 1.09 | –
34 | CGACATGTCCCGCTTCTTTCATTACTACGTTAGCAACTGTTTTGCTATATATATTTACCTTTTAAGAGGAGGAAT | – | – | cleaved RNA product abundance [1]: 1.18
35 | ACAGACGAAGGAGCCGCAAAAAAGTTGTTAAGGGATGAATAATCCCTCAATATAAATATCTCTCACTTATTTAAA | 0.388 | 0.355 | –
36 | CGACATGTCCCGCTTCTTTCATTAATTCGTTAGCAACTGTTTTGCTATATACATTTACCATTTAAGAGGAGGAAT | – | – | cleaved RNA product abundance [1]: 1.22
37 | ACAGACGAAGGAGCCGCAAAGAAGTTATTACGGGATGATTAATCCCTCAATATAAATATCTCTCACTTATTTAAA | – | 0.204 | –
38 | ACAGACGAAGGAGCCGCAAATAAATTATTAAGGGATGAATAATCCCCCAATATAAATATCTCTCACTTATTTAAA | – | 0.381 | –
39 | ACAGACGAAGGAGCCGCAAAGAAGTTATTAAGGGATGAATAATCCCTCATTTTAAATATCTCTCACTTATTTAAA | – | 0.191 | –
40 | ACAGACGAAGGAGCCGCAAAGACGTTATTATGGGATGAATAATCCCTCAATATAAATATCTCTCACTTATTTAAA | – | 0.284 | –

Row | Sequence | cleaved RNA product abundance [2] | cleaved RNA product abundance [3] | other results
41 | ACAGACGAAGGAGCCGCAAAGAAGTTATTAAGGGATTAATAATCCCTCAATATACATATCTCTCACTTATTTAAA | – | 0.799 | –
42 | ACAGACGAAGGAGCCGCAAAGACGTTATTAACGGATGAATAATCCCTCAATATAAATATCTCTCACTTATTTAAA | – | 0.165 | –
43 | ACAGACGAAGGAGCCGCAAAGAAGTTATTAAGGAATGAATAATACCTCAATATAAATATCTCTCACTTATTTAAA | 0.121 | 0.124 | –
44 | ACAGACGAAGGAGCCGCAAAGAAGTTTTTAACGGATGAATAATCCCTCAATATAAATATCTCTCACTTATTTAAA | – | 0.197 | cleaved RNA product abundance [4]: 0.192
45 | CGACATGTCCCGCTTCTTTCATTAATCCGTTACCAACTGTTTTGCTATATACATTTACCGTTTAAGAGGAGGAAT | – | – | cleaved RNA product abundance [1]: 0.173
46 | ACAGACGAAGGAGCCGCAAAGAAGTTATTAAGGGTTGAATAATCCCTCAATATAAATCTCTCTCACTTATTTAAA | – | 0.173 | –
47 | ACAGACGAAGGAGCCGCAAAGAAGTTATTAAGAGATGAATGATCCCTCAATATAAATATCTCTCACTTATTTAAA | – | 0.0837 | –
48 | CGACATGTCCCGCTTCTTTCATTAATCCGTTAGCAACTGTACTGCTATATACATTTACCTTTTAAGAGGAGGAAT | – | – | cleaved RNA product abundance [1]: 0.328
49 | ACAGACGAAGGAGCCGCTAAGAAATTATTAAGGGATGAATAATCCCTCAATATAAATATCTCTCACTTATTTAAA | 0.556 | – | –
50 | ACAGACGAAGGAGCCGCAAAGAAGTTATTAAGGGATCAATACTCCCTCAATATAAATATCTCTCACTTATTTAAA | – | 0.579 | –
51 | CGACATGTCCCGCTTCTTTCATTAATCCGTTAGCAAATGTTTTACTATATACATTTACCTTTTAAGAGGAGGAAT | – | – | cleaved RNA product abundance [1]: 0.73
52 | CGACATGTCCCGCTTCTTTCATTAATCCCTTAACAACTGTATTGCTATATACATTTACCTTTTAAGAGGAGGAAT | – | – | cleaved RNA product abundance [1]: 0.142
53 | ACAGACGAAGGAGCCGCAAAGAAATTATTAAAGGATTAATAATCCCTCAATATAAATATCTCTCACTTATTTAAA | – | 0.142 | –
54 | ACAGACGAAGGAGCCGCAAAGAAGTTATTAAGGGATGCATCATCCCTCAATATAAATATCTCTCACTTATTTAAA | – | 0.307 | –
55 | ACAGACGAAGGAGCCGCAAAGAAGTTATTAAGGGATGAATAATACCTAAATATAAATATCTCTCACTTATTTAAA | 0.12 | 0.132 | –
56 | ACAGACGAAGGAGCCGCAAAGAAGTTATTAATGGATGAATAATTCCTCAATATAAATATCTCTCACTTATTTAAA | 0.0864 | 0.12 | –
57 | ACAGACGAAGGAGCCGCAAAGAATTTATTAAGGGATGAATAATCCCTCAATTTAAATATCTCTCACTTATTTAAA | 0.154 | 0.0947 | –
58 | CGACATGTCCCGCTTCTTTCATTAATCCCTTAGCAACTCTTTTGCTATATACATTTACCTTTTAAGAGGAGGAAT | – | – | cleaved RNA product abundance [1]: 0.0915
59 | CGACATGTCCCGCTTCTTTCATTAATCCGTTAGCAACCGTTTTTCTATATACATTTACCTTTTAAGAGGAGGAAT | – | – | cleaved RNA product abundance [1]: 0.384
60 | ACAGACGAAGGAGCCGCAAAAATGTTATTAAGGGATGAATAATCCCTCAATATAAATATCTCTCACTTATTTAAA | – | 0.983 | –

Reference: the supplement of paper PMC11780869
